The target in the assay is IL12 receptor on pre-activated mouse CD8+ T cells (mouse) (UniProt Q60837). Kind of assay: cell-based or functional assay.
Chain of IL12 receptor on pre-activated mouse CD8+ T cells (mouse) (Q60837 20-738, chain 1 of 2): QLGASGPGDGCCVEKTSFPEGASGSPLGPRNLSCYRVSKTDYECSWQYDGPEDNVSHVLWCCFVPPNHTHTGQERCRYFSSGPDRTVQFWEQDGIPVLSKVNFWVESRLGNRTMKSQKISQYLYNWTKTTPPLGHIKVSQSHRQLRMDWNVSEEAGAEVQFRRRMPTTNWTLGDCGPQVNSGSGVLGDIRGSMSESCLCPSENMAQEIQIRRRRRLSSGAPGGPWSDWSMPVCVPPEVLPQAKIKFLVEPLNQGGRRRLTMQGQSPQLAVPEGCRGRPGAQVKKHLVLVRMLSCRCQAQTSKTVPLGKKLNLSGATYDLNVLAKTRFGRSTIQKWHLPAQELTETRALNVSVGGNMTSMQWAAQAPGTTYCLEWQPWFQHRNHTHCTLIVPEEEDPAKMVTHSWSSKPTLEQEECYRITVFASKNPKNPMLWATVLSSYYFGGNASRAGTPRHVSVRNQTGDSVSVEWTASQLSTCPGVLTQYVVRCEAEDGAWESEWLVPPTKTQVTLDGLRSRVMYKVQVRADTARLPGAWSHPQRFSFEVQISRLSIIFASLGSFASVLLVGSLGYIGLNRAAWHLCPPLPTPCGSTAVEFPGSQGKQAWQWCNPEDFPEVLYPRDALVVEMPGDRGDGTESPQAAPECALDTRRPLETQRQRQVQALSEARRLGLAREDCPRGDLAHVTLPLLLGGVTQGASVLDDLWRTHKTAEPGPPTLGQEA
Chain of IL12 receptor on pre-activated mouse CD8+ T cells (mouse) (chain, as listed by the source, chain 2 of 2): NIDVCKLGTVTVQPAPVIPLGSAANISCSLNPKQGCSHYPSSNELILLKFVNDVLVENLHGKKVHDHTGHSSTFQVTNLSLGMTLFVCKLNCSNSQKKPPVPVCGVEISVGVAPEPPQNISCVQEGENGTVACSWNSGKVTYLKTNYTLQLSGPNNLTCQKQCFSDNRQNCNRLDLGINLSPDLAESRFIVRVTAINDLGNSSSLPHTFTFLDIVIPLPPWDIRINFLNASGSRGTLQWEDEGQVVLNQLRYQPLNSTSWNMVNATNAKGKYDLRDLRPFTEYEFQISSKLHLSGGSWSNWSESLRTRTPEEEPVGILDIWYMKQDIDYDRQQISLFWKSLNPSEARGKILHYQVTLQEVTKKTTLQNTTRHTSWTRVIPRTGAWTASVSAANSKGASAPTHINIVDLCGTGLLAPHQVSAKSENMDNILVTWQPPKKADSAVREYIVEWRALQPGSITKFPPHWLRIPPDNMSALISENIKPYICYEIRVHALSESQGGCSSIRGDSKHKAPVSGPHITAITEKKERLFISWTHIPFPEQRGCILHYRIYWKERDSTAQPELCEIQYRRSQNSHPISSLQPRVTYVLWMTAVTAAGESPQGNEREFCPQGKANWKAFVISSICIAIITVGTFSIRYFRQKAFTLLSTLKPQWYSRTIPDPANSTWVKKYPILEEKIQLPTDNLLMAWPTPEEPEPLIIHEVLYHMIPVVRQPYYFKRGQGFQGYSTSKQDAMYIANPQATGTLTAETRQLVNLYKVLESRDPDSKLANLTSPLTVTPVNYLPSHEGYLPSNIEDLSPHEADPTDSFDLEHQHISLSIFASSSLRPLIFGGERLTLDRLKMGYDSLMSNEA

Consider IL12Rβ1-(G3S)11-IL12, for which the EC50 of STAT4 phosphorylation in pre-activated mouse CD8+ T cells, fold against unmodified IL12 was determined as 80 fold.

(Values after patent US20220281936A1.)
